The DeepSol protein solubility set

assay: soluble on expression in E. coli; label from the status in PepcDB or PDB records

Sequence | soluble on expression in E. coli
MSLAATGNASKPSLNSFYADGLGQLRNGLFSCFQPVFGYFGTKTTVEIEKSEDELWEIPFDAISELEWLGSGSQGAVFRGQLENRTVAVKKVNQLKETEIKHLRHLRHQNIIEFLGVCSKSPCYCIVMEYCSKGQLCTVLKSRNTITRELFAQWVKEIADGMHYLHQNKVIHRDLKSPNILISAEDSIKICDFGTSHMQKKMDSTMMSFCGTVSWMAPEMIKKQPCNEKVDVYSFGVVLWEMLTRETPYANIAQMAIIFGVGTNILSLPMPEEAPKGLVLLIKQCLSQKGRNRPSFSHIRQHWEIFKPELFEMTEEEWQLAWDSYREFAKCIQYPSTVTRDHGGPKSAFAMEEEIQRKRHEQLNHIKDIRNMYEMKLKRTNKMYDKLQGCFTELKLKESELAEWEKDLTEREGHHHHHH | not soluble
MKAVYPGSFDPITLGHVDIIKRALSIFDELVVLVTENPRKKCMFTLEERKKLIEEVLSDLDGVKVDVHHGLLVDYLKKHGIKVLVRGLRAVTDYEYELQMALANKKLYSDLETVFLIASEKFSFISSSLVKEVALYGGDVTEWVPPEVARALNEKLKEGKR | not soluble
MGSDKIHHHHHHKTLAANAVFATAFVKRDGSFGAAILSEAGKVLHAIDLPDRGHDVTFDPISKRSVVFARQPGTFAVVFDHSGRDAPQTVASISGRHFFGHGVFSPDGALLYATENDFDNAAGVIGIYDARAKFSRVGEFPTYGMGPHELLLLGDGRTMAVANGGIETHPDYGRAELNIATMKPSYVLIDRVTGDLIEKHELPASLHQLSIRHMDTDPSGTVWFGCQYRGPGTDRPLLVGRAVRGKELQLLDMPQDVLSGFRNYIGSVAANLSAGSVAVSSPEGNSLVVIDAASGRVVSSSALVEVCGLAPDGSGFIATTGAGEIIEGSGATRSEPDYVWDNHMLRIERA | not soluble
MGSDKIHHHHHHMQHWAIFATDSYSGSLLGRMLAADIQPDEGQICNLPARVGWVSLGLQQALLERELAKDELDYGSTVEALVLECCQDSAQLPALLQKVGLEPLRQRGFRQLSTGETRRVMLARALAMLPQLLILDDPYAGLDAEHQGSLSELLCEVAAHSQLLVITSRQEELPPCISHVALFNSEMLKSGQHVHKLSAPMSIEQWHSHPVMAQLNALSASRSDELLALMERQRHNAEAFDPLVEIKNGKVEYVSCLIFKGVNWRINAGQHWQVRGPNGCGKSTLLGLILGDHPQCYSNDITLFGRPRGSGESIWQIKQRIGIVSSALHLQYRVSCSALDVLLSGFYDSIGLYHKPTKPQVDLAKEWLAILHMNEFASTGFKQLDYGQQRLLLIGRALIKQPLLLILDEPYQGLDFINRTLVMRALEMIAEHHLSQLLYVSHHREDALPAIKNFVDFIKQDNGYSVEVSHRPNELAQRMPIP | not soluble
MHRRSIINHSRPDKLKRGMHVEIASNVINDLQFFDQQIRWAKADLVQQVSRNRLNRARTYRGYLNQCLPHELVADIQRAVIKSINAISLINLEHHHHHH | not soluble
MERILLVLDDTGRGEIAFQKLKKLAEDGLRGEVYILYIREMEVPPFVPEEKELAAYHRLMTQSMKKLEGFKNQLEKAGLKVSDVSVVFGKYADRLLLVEKQIKPDLIVVGFKGGLLKRVIGGFFGKDPCEVLLKKSKASLLICRG | not soluble
MSLTSDTKEKVEYSTDKYKVETNRFWDNWFISVGAGGQVYFGDHDKQIDFGDRIAPALDIAIGKWFTPGIGIRFMYSGLKSKGATRDDWECDITHGTGEHVPGWAGVPGDDLQYSKYKMSNLHADVLFNVLNLFGGYNENRKWDLSPYAGLGWARVYDSPSSKEVSANLGILTSWHFCDVLALNLDVRGMFVNDRFDGEGGGRFGEGNLSATIGLTYKFKQRSWDRSKTVYRYNYGDLESMRRKLNDMSAENDRLKKALADGDKQKAQTIVKKIASANLVTFKINRTKLSNEARANLGLLAEIIKSGDPETVYTITGYADAGTGSSKGNERLSKERAENVYDCLVKEFGVSEKQLRIDYKGGVDNMFYNDPRLSRAVITRGEEGHHHHHH | not soluble
MSLYTVLVADDKEVFRRKVKRMPYFQDHKEKFAIRYEAQNGLEALEILRSHDVDMVLTDIRMPFIDGIELLKHVNAENLCKCVILLSEFAEFNYAKAGILNGAFDYVLKPVDDEKIQETFDRAYNYLTTINAAVNAQTQRIETLARLMLAGDRMNALAYAKHIGAGLQAHGAITGERIVQANDTLAQLNKYILQKRPFLHYYLPFDELCCLDAKKTTPGKISDAFNACVSTVMDAIEPFCVQSTNELVGRTCQLVLEKLDSKVSLHGIADNLYVNPKYLGALFKKETGRSFVDYVTFARMERAKMLLRNPTLKVYEVAAQLGYDDVDYFSKVFKKLTAESPSIYREMRKEGHHHHHH | soluble
MTEPKPRARRSGAAPARTRDDQVVDRRRSLLKAAVKVISKRGLTGVTINSIAAEAKCSYGVVAFHFQSKEGIIFAALDHTAAEYEAYLAQLNASQRGPAERIRHMIDTDFSRKAAGHESIALWLAFWAEAARVPSFRQRCAALRVQYNEAVAADVAELAALRGRTVEAEQVALTLNAMISGLWVENLLLPITIAEGQKRGHDASLAYLRLIFPDDF | not soluble
MNINTDIFKIQSNNVMPSRGKILISEPFLHDVTFGRSVVLLVDHTEEGSMGLIINKPLPLMLNDIIKEFKYIEDIPLHKGGPIGTDTLFYLHTLHEIPGTLPINNGLYLNGDFDAIKKYILQGNPIKGKIRFFLGYSGWECEQLIQEIKENTWIISKEENTYLMNEDIKGMWKEALGKLGSKYETWSRFPQVPSLNLEHHHHHH | not soluble
MSRVAPRDSAAQAASAVAESVRYQGRKASRQGSEQRRQAILDAAMRLIVRDGVRAVRHRAVAAEAQVPLSATTYYFKDIDDLITDTFALFVERNAEALSAFWSSVEGDLQEMAAVLADDPGARGSLVERIVELAVQYVQVQLTERREHLLAEQAFRQEALLNPRLRELADAHQRILSLGAVHFFQVLGSGQPEQDAKVLTSIILQMEYQGLVDGVEQLAVDEMRAILRRYLNLVMGL | soluble
AHHHHHHGSLKLVENVVGRVSEEENKVPEVQVPQSSIDEELKKIVEQIKARIYVVGVGGAGCNTVNRMMEVGVTGAKIIAVNTDAQDLLKVKAHQKILIGKELTRGLGAGNDPKIGEEAAKESERELRDALEGADMVFITCGLGGGTGTGAAPVIAEIARKMGALTVSVVTLPFTMEGIRRAKNAEYGLKRLVKYSDTVIVIPNDKLLEVAPKLPIQMAFKVADEILVQAVKGITELITKPGLVNLDFNDVRAVMKDGGVAMIGIGESDSEKRALEAAEQALNSPLLDVDISGATGALIHISGADVKLEEAQQIIEYVTRNVDPKAQVIWGIQLEPELEKTIRVMVVITGVTSRYITPEEETPLETPEESPSIEISIPEL | soluble
MGSDKIHHHHHHMTHEFVTILHTNDLHSHVEHWPRIANWIKTRRAQLQAAGHFVLTFDVGDFIDRYDANTQATWGKANVELLNDCTFDGVTIGNNEGLGLPRDRMEDIYSERRFAVLLANIFENDHGLPKWAEEYRVFVTPKGTRISAFGLTAAYDLTYPLLDWLPAQPVETLEKLSDRVIAQSDIRILLSHLGLPTDQSLARRFKEISVILGAHTHHLLPKGQMVENTLLAAAGKYGENVGEVDLEIDEKHQVVSERAHTIKFDNLPEVESASAFLENWRESGRNILENQIISNLPTDRSTLQQIDDCADALMEKFQTKIAMISSGMFLDELPAGQLNAFQLLKDLPHTIHPMKIDILGSDLLKLFDEINLQHDHLLNQHINGSGFRGDKFGEIKFYGLHEKQVDPKQHYEIASLDHYYFLPWFHSLQSADVSFDFKNILRELTAGYYREKYSHQEAV | not soluble
MSLRSAKHHFGAATSRGTRPSNEDTYQAGVIDIPAFAKRPPASLTIRNRSARVAGLRENRGADSASGDPQVFYFGIFDGHGGSECSTFMKETLHEYIQDTAAEFELQSSLRKAGENSASPDAESELPIRQGSNVARVQRLEKSLVQSWRNLVGGYFRRFVPPNFSHLAKHTAEESSSVPENNKGVTIEEILEYAFLRADLDFVSAQASREDDELSNVCRPLYQDDILYGPSRSQSLNIAGLRRFKGGSTASTVMISTPTPAPFWHPASPSSLLVSHVGDTRMLLCSTVTGEAIPLTSNHHPSSPIEANRLRRYAATFVTDSFGEERISGLANTRAFGDVQSKRIGVSAEPELRRFEIAPAEYSFLVLMSDGISEALTDQEVVDIIKEAKTPDEGARHVVNFATEVTRTGDNATCLVVRLGGWEREGHHHHHH | not soluble
GPALVKQSHPKNPNDKHRSKKCKDPKPRVKKLKYHQYIPPDQKGEKNEPQMDSNYARLLQQQQLFLQLQILSQQKQHYNYQTILPAPFKPLNDKNSNSGNSALNNATPNTPRQNTSTPVRKPGPLPSSLDDLKVSELKTELKLRGLPVSGTKPDLIERLKPYQEVNSSGLAAGGIVAVSSSAIVTSNPEVTVALPVTTLHNTVTSSVSTLKAELPPTGTSNATRVENVHSPLPISPSPSEQSSLSTDDTNMADTFTEIMTMMSPSQFLSSSPLRMTNNEDSLSPTSSTLSNLELDAAEKDRKLQEKEKQIEELKRKLEQEQKLVEVLKMQLEVEKRGQQQRPLEAQPSAPGHSVKSDQKHGSLGSSIKDEASLPDCSSSRQPIPVASHAVGQPVSTGGQTLVAKKAVVIKQEVPVGQAEQQSVVSQFYVSSQGQPPPAVVAQPQALLTTQTAQLLLPVSIQGSSVTSVQLPVGSLKLQTSPQAGMQTQPQIATAAQIPTAALASGLAPTVPQTQDTFPQHVLSQPQQVRKVFTNSASSNTVLPYQRHPAPAVQQPFINKASNSVLQSRNAPLPSLQNGPNTPNKPSSPPPPQQFVVQHSLFGSPVAKTKDPPRYEEAIKQTRSTQAPLPEISNAHSQQMDDLFDILIKSGEISLPIKEEPSPISKMRPVTASITTMPVNTVVSRPPPQVQMAPPVSLEPMGSLSASLENQLEAFLDGTLPSANEIPPLQSSSEDREPFSLIEDLQNDLLSHSGMLDHSHSPMETSETQFAAGTPCLSLDLSDSNLDNMEWLDITMPNSSSGLTPLSTTAPSMFSADFLDPQDLPLPWD | soluble
MEMDKAVTGVALDLDHAQIGLIGIPDQPGIAAKVFQALAERGIAVDMIIQGVPGHDPSRQQMAFTVKKDFAQEALEALEPVLAEIGGEAILRPDIAKVSIVGVGLASTPEVPAKMFQAVASTGANIEMIATSEVRISVIIPAEYAEAALRAVHQAFELDKAHHHHHH | soluble
MHKDIKLVKETEIRKPIGSPFIVYFSSISNNTHRFIEKLGFQHKRIPVDITQSITVSNEYVLICPTYSGGGNQVEGAVPKQVIQFLNNKHNRELCRGVIASGNTNFGDTFCLAGTVISKKLNVPLLYQFELLGTKNDVEQTQKIIANFFQNSN | soluble
MGSDKIHHHHHHMKVAYVIGGLPFGGVESWLLDLARHVSKTSDFECRVFNVSGTGVKMPEYISSGVDVVCAGNSLDSIATHRIDTVLRLRSQLVEYAPDIIHTLHFSGDYCGRLASIGLGVPVVTHLRNIKCERKLRRRLANKLLSFFTDMYLSVSRAVADMVADDHNIAKRPSRVIYNAVDPQKLAVEPHDLTAMYGVSGRIVVGVGRYVGQKNFDLLLRALRLVLDEGHDISVVLVGEGGERPHLERLIRELSLEGHAVLTGYRQDVPRFLRASYALAMPSDFEGLPITHLEAMFCGLPAIVSRHVPSLEIAREASLVCKRSPESIAQCIIRLLEDEKLHSTLSNTGSRIASEHTMDLYIKTLKGIYDELASRGKEI | not soluble
MGSDKIHHHHHHMEHIEKLNAVLKHIKTSFVGKDEIIDLLGISLIARENAFLLGPPGTAKSAIIRALSACISDGKNFEYLLTRFTEPGELFGPFDIRKLKEGDLVTNTEGMMPEASMVFLDEIFNANSAILNSLLTALNERIFRRGKETKKLPALMFIGASNVLPEDESLNALLDRFLIRARCDYVDTDLLEEVLVAGWNLETRNQNQKPAIAPAEIIELQQYAKQVDVSTVRRQYVDLIHNLRNTGIKISDRRAVKIQNLLAASAVMSNRKEVIPSDLWVLKHVWDTEEQIEILEGIINTIIEKDTNPLAHPQAQYNKTPNAEELIKEIIQLTEKWESGNLSFEEQNVVKDKLRYLQTRSNWIKNNEHKLHIQEKIESLWHKMLQTI | not soluble
